Results reported in article PMC3176292, “Mutations in Protein-Binding Hot-Spots on the Hub Protein Smad3 Differentially Affect Its Protein Interactions and Smad3-Regulated Gene Expression” (PLoS ONE, 2011).

Legend:
Experiment in all cases: co-IP; LUMIER: Renilla luciferase-Smad3 and Flag-tagged partner co-expressed with constitutively active Alk5 in HEK-293; Flag protein captured from cleared lysate (TNE: 10 mM Tris-HCl pH 7.8, 150 mM NaCl, 1 mM EDTA, 1% Igepal CA-630) on anti-Flag 96-well plates, 2 h at 4 °C; co-precipitated Renilla luciferase activity, TrxGA background subtracted, percent of wild-type Smad3
Conditions in all cases: partners not purified
[1] = biological target: T1, SARA Smad-binding domain (amino acids 665–721) on the 3xFlag-thioredoxin scaffold (UniProt O95405 767-823)
T1 construct: SARA, amino acids 665–721; cloned into the unique RsrII site of pCI-3xFLAG-Trx; also called SARA aa665–721; TrxSARA; source: HEK-293, transfected, in lysate
T1 sequence (looked up): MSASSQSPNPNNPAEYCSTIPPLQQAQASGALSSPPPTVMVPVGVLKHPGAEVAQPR

Flag-SARA, full length = biological target: T2, Flag-SARA, full length (UniProt O95405 1-1425)
T2 construct: SARA; plasmid pCMV5b-Flag-SARA; also called SARA FL; source: HEK-293, transfected, in lysate
T2 sequence (looked up): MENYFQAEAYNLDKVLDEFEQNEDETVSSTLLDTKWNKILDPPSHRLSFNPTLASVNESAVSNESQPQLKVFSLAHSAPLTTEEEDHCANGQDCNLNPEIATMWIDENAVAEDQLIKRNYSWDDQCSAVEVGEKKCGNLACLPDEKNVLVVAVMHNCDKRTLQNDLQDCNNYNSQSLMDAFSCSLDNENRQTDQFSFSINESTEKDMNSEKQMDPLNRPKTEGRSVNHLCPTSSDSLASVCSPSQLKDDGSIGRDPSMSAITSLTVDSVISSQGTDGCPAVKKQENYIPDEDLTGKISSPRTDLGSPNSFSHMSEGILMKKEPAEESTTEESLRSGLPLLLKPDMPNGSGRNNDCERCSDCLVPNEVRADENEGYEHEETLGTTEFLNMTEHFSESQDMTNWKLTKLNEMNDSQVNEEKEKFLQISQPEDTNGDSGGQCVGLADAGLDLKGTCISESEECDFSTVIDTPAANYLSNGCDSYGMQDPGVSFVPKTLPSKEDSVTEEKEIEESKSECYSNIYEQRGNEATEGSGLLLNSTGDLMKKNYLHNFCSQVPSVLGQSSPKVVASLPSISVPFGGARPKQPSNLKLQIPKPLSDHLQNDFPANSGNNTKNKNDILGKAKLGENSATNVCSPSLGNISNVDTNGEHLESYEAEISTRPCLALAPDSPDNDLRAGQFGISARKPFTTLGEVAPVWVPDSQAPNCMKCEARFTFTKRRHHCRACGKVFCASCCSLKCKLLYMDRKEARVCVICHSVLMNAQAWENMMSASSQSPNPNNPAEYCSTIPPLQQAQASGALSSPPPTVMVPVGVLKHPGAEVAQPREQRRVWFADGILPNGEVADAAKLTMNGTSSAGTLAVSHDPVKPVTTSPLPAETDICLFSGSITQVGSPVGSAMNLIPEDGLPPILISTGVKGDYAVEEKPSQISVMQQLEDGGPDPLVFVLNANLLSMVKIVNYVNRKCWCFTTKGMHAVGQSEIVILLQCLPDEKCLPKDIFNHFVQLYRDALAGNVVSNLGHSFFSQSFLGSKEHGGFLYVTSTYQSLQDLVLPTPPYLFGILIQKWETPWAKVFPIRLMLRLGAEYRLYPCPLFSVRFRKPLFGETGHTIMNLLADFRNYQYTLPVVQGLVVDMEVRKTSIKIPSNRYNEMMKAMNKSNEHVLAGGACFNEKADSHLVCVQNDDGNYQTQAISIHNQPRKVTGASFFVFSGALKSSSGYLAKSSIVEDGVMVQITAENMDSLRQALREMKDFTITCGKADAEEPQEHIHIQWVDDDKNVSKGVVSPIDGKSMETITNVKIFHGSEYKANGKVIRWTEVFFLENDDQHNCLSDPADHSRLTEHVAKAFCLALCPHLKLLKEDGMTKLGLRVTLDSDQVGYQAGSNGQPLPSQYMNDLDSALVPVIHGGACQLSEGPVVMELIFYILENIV

[2] = biological target: T3, Smurf2 Smad-binding domain (amino acids 252–330) on the Flag-thioredoxin scaffold (UniProt Q9HAU4 252-330)
T3 construct: Smurf2, amino acids 252–330; also called Smurf2 aa252–330; TrxSmurf2; source: HEK-293, transfected, in lysate
T3 sequence (Q9HAU4 252-330): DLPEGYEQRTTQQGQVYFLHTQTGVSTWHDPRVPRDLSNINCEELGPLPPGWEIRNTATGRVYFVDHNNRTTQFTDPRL

[3] = biological target: T4, Ski Smad-binding domain (amino acids 2–56) on the 3xFlag-thioredoxin scaffold (UniProt P12755 2-56)
T4 construct: Ski, amino acids 2–56; cloned into the unique RsrII site of pCI-3xFLAG-Trx; also called Ski aa2–56; TrxSki; source: HEK-293, transfected, in lysate
T4 sequence (looked up): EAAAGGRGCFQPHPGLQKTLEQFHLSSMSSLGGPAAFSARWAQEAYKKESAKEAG

B1: Renilla luciferase-Smad3 C338A (natural protein, UniProt P84022 1-425, looked up)
chain: MSSILPFTPPIVKRLLGWKKGEQNGQEEKWCEKAVKSLVKKLKKTGQLDELEKAITTQNVNTKCITIPRSLDGRLQVSHRKGLPHVIYCRLWRWPDLHSHHELRAMELCEFAFNMKKDEVCVNPYHYQRVETPVLPPVLVPRHTEIPAEFPPLDDYSHSIPENTNFPAGIEPQSNIPETPPPGYLSEDGETSDHQMNHSMDAGSPNLSPNPMSPAHNNLDLQPVTYCEPAFWCSISYYELNQRVGETFHASQPSMTVDGFTDPSNSERFCLGLLSNVNRNAAVELTRRHIGRGVRLYYIGGEVFAECLSDSAIFVQSPNCNQRYGWHPATVCKIPPGANLKIFNNQEFAALLAQSVNQGFEAVYQLTRMCTIRMSFVKGWGAEYRRQTVTSTPCWIELHLNGPLQWLDKVLTQMGSPSIRCSSVS
notes: Smad3; source: HEK-293, transfected together with constitutively active Alk5, in lysate
- percent binding relative to wild-type Smad3 [1]: 94%
- percent binding relative to wild-type Smad3 (Flag-SARA, full length): 136%
- percent binding relative to wild-type Smad3 [2]: 153%
- percent binding relative to wild-type Smad3 [3]: 188%

B2: Renilla luciferase-Smad3 E267A (natural protein, UniProt P84022 1-425, looked up)
chain: MSSILPFTPPIVKRLLGWKKGEQNGQEEKWCEKAVKSLVKKLKKTGQLDELEKAITTQNVNTKCITIPRSLDGRLQVSHRKGLPHVIYCRLWRWPDLHSHHELRAMELCEFAFNMKKDEVCVNPYHYQRVETPVLPPVLVPRHTEIPAEFPPLDDYSHSIPENTNFPAGIEPQSNIPETPPPGYLSEDGETSDHQMNHSMDAGSPNLSPNPMSPAHNNLDLQPVTYCEPAFWCSISYYELNQRVGETFHASQPSMTVDGFTDPSNSARFCLGLLSNVNRNAAVELTRRHIGRGVRLYYIGGEVFAECLSDSAIFVQSPNCNQRYGWHPATVCKIPPGCNLKIFNNQEFAALLAQSVNQGFEAVYQLTRMCTIRMSFVKGWGAEYRRQTVTSTPCWIELHLNGPLQWLDKVLTQMGSPSIRCSSVS
notes: as for B1
- percent binding relative to wild-type Smad3 [1]: 81%
- percent binding relative to wild-type Smad3 (Flag-SARA, full length): 82%
- percent binding relative to wild-type Smad3 [2]: 379%
- percent binding relative to wild-type Smad3 [3]: 1150%

B3: Renilla luciferase-Smad3 K341A (natural protein, UniProt P84022 1-425, looked up)
chain: MSSILPFTPPIVKRLLGWKKGEQNGQEEKWCEKAVKSLVKKLKKTGQLDELEKAITTQNVNTKCITIPRSLDGRLQVSHRKGLPHVIYCRLWRWPDLHSHHELRAMELCEFAFNMKKDEVCVNPYHYQRVETPVLPPVLVPRHTEIPAEFPPLDDYSHSIPENTNFPAGIEPQSNIPETPPPGYLSEDGETSDHQMNHSMDAGSPNLSPNPMSPAHNNLDLQPVTYCEPAFWCSISYYELNQRVGETFHASQPSMTVDGFTDPSNSERFCLGLLSNVNRNAAVELTRRHIGRGVRLYYIGGEVFAECLSDSAIFVQSPNCNQRYGWHPATVCKIPPGCNLAIFNNQEFAALLAQSVNQGFEAVYQLTRMCTIRMSFVKGWGAEYRRQTVTSTPCWIELHLNGPLQWLDKVLTQMGSPSIRCSSVS
notes: as for B1
- percent binding relative to wild-type Smad3 [1]: 4%
- percent binding relative to wild-type Smad3 (Flag-SARA, full length): 29%
- percent binding relative to wild-type Smad3 [2]: 130%
- percent binding relative to wild-type Smad3 [3]: 27%

B4: Renilla luciferase-Smad3 L340A (natural protein, UniProt P84022 1-425, looked up)
chain: MSSILPFTPPIVKRLLGWKKGEQNGQEEKWCEKAVKSLVKKLKKTGQLDELEKAITTQNVNTKCITIPRSLDGRLQVSHRKGLPHVIYCRLWRWPDLHSHHELRAMELCEFAFNMKKDEVCVNPYHYQRVETPVLPPVLVPRHTEIPAEFPPLDDYSHSIPENTNFPAGIEPQSNIPETPPPGYLSEDGETSDHQMNHSMDAGSPNLSPNPMSPAHNNLDLQPVTYCEPAFWCSISYYELNQRVGETFHASQPSMTVDGFTDPSNSERFCLGLLSNVNRNAAVELTRRHIGRGVRLYYIGGEVFAECLSDSAIFVQSPNCNQRYGWHPATVCKIPPGCNAKIFNNQEFAALLAQSVNQGFEAVYQLTRMCTIRMSFVKGWGAEYRRQTVTSTPCWIELHLNGPLQWLDKVLTQMGSPSIRCSSVS
notes: as for B1
- percent binding relative to wild-type Smad3 [1]: 12%
- percent binding relative to wild-type Smad3 (Flag-SARA, full length): 58%
- percent binding relative to wild-type Smad3 [2]: 259%
- percent binding relative to wild-type Smad3 [3]: 194%

B5: Renilla luciferase-Smad3 P335A/P336A (natural protein, UniProt P84022 1-425, looked up)
chain: MSSILPFTPPIVKRLLGWKKGEQNGQEEKWCEKAVKSLVKKLKKTGQLDELEKAITTQNVNTKCITIPRSLDGRLQVSHRKGLPHVIYCRLWRWPDLHSHHELRAMELCEFAFNMKKDEVCVNPYHYQRVETPVLPPVLVPRHTEIPAEFPPLDDYSHSIPENTNFPAGIEPQSNIPETPPPGYLSEDGETSDHQMNHSMDAGSPNLSPNPMSPAHNNLDLQPVTYCEPAFWCSISYYELNQRVGETFHASQPSMTVDGFTDPSNSERFCLGLLSNVNRNAAVELTRRHIGRGVRLYYIGGEVFAECLSDSAIFVQSPNCNQRYGWHPATVCKIAAGCNLKIFNNQEFAALLAQSVNQGFEAVYQLTRMCTIRMSFVKGWGAEYRRQTVTSTPCWIELHLNGPLQWLDKVLTQMGSPSIRCSSVS
notes: as for B1
- percent binding relative to wild-type Smad3 [1]: 2%
- percent binding relative to wild-type Smad3 (Flag-SARA, full length): 16%
- percent binding relative to wild-type Smad3 [2]: 255%
- percent binding relative to wild-type Smad3 [3]: 356%

B6: Renilla luciferase-Smad3 Y297A (natural protein, UniProt P84022 1-425, looked up)
chain: MSSILPFTPPIVKRLLGWKKGEQNGQEEKWCEKAVKSLVKKLKKTGQLDELEKAITTQNVNTKCITIPRSLDGRLQVSHRKGLPHVIYCRLWRWPDLHSHHELRAMELCEFAFNMKKDEVCVNPYHYQRVETPVLPPVLVPRHTEIPAEFPPLDDYSHSIPENTNFPAGIEPQSNIPETPPPGYLSEDGETSDHQMNHSMDAGSPNLSPNPMSPAHNNLDLQPVTYCEPAFWCSISYYELNQRVGETFHASQPSMTVDGFTDPSNSERFCLGLLSNVNRNAAVELTRRHIGRGVRLAYIGGEVFAECLSDSAIFVQSPNCNQRYGWHPATVCKIPPGCNLKIFNNQEFAALLAQSVNQGFEAVYQLTRMCTIRMSFVKGWGAEYRRQTVTSTPCWIELHLNGPLQWLDKVLTQMGSPSIRCSSVS
notes: as for B1
- percent binding relative to wild-type Smad3 (Flag-SARA, full length): 38%
